# Laboratory results published in publication PMC6208366.
# B1: full-length human FKBP51 (natural protein)
# chain: MTTDEGAKNNEESPTATVAEQGEDITSKKDRGVLKIVKRVGNGEETPMIGDKVYVHYKGKLSNGKKFDSSHDRNEPFVFSLGKGQVIKAWDIGVATMKKGEICHLLCKPEYAYGSAGSLPKIPSNATLFFEIELLDFKGEDLFEDGGIIRRTKRKGEGYSNPNEGATVEIHLEGRCGGRMFDCRDVAFTVGEGEDHDIPIGIDKALEKMQREEQCILYLGPRYGFGEAGKPKFGIEPNAELIYEVTLKSFEKAKESWEMDTKEKLEQAAIVKEKGTVYFKGGKYMQAVIQYGKIVSWLEMEYGLSEKESKASESFLLAAFLNLAMCYLKLREYTKAVECCDKALGLDSANEKGLYRRGEAQLLMNEFESAKGDFEKVLEVNPQNKAARLQISMCQKKAKEHNERDRRIYANMFKKFAEQDAKEEANKAMGKKTSEGVTNEKGTDSQAMEEEKPEGHV
# Target: IANBD-labeled Hsp90 M362C (human)
# Assay: stopped-flow fluorescence; IANBD-labeled Hsp90 M362C (1 µM) mixed with equal volumes of FKBP51, FK1-FK2, FK2-TPR or buffer, pseudo-first-order, 37 °C, 25 mM sodium phosphate/300 mM NaCl pH 7.2; rates as fluorescence increase at 20 s
binder,measurement,value
B1,"ΔF (rate of Hsp90 binding, fluorescence increase)",0.0021 s⁻¹
